Results from publication PMC9234269.

These substances were tested against Aβ1–42 fibrils (sonicated, immobilized) (human) (UniProt P05067) (assay: ELISA; sonicated Aβ1–42 fibrils coated on a high binding plate (50 μl of 2.5 μg/ml, carbonate buffer pH 9.6, overnight 8°C); blocked with 2% BSA in PBS pH 7.4; chaperones in 2% BSA up to 5,000 nM, 2 h at room temperature; detected with polyclonal anti-6×His; bound amount estimated from standard curves of chaperone deposited directly (0–100 nM)).

stoichiometry N (Aβ1–42 monomers per chaperone molecule) | Substance
70 | Drosophila HSP10 (natural protein)
1400 | GroES (from UniProt P0A6F9 1-97) (natural protein)
800 | Human HSP10 (from UniProt P61604 3-102) (natural protein)
